In patent US20190375839A1 (JIANGSU HENGRUI MEDICINE, published 2019):

How the values were obtained:
[1] = molecular target: T1, human TIM-3 full length, overexpressed on CHO-S cells (human, UniProt Q8TDQ0 22-301); assay: cell-based ELISA on fixed CHO-S cells overexpressing human TIM-3;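 further: antibody binding at serial dilutions to PFA-fixed cells for 1 h at 37 °C, read as TMB colour signal after acid stop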
T1 construct: cells fixed with 4% PFA on plates; also called HAVCR2; Tim-3-overexpressing CHO-S cells
Protocol: (§1) The binding activity of anti-TIM-3 antibody to CHO-S cells overexpressing human TIM-3 is detected via a binding assay. […] TIM-3-overexpressing cells were immobilized on a 96-well plate. After the addition of the antibody, signal strength was used to determine the binding activity of the antibody to Tim-3-overexpressing CHO-S cells.
(§2) The cells were inoculated on a 96-well plate with 4E5/ml density, 100 μg/well, and cultured overnight. Supernatant was discarded and the plate was washed three times with PBS. 100 μl/well of 4% PFA was added into each well, and the plate was fixed at room temperature for 30 minutes. The plate was washed three times with PBS. The liquid was discarded, and 200 μl of blocking solution (5% skim milk (Guangming skim milk powder) diluted with PBS) was added to each well. The plate was incubated at 37° C. for 2.5 h. Then the blocking solution was discarded, and the plate was washed 5 times with PBST buffer (pH 7.4 PBS containing 0.05% Tween-20). 50 μl/well of various concentrations of antibodies to be tested (antibody via hybridoma purification or humanized antibody), diluted with sample buffer, were added into each well, and incubated at 37° C. for 1 h. […] The plate was washed 6 times with PBST, and 100 μl/well TMB chromogenic substrates (KPL, Cat, No., 52-00-03) was added to each well. The plate was incubated at room temperature for 5-15 min. Reaction was stopped by the addition of 50 μl of 1 M H₂SO₄ to each well.

[2] = molecular target: T2, Extracellular domain of TIM-3 with Flag and His tag (human); assay: Biacore SPR; antibody captured by anti-human capture antibody on CM5, TIM-3-Flag-His in mobile phase
T2 construct: also called TIM-3-Flag-His
Description: The reaction signal was detected in real-time using Biacore instrument to obtain the association and dissociation curves. […] In the experiment, after each cycle of dissociation was finished, the biosensor chip was washed with the regenerative solution in the human capture antibody Kit.

[3] = molecular target: T1, human TIM-3 full length, overexpressed …; assay: cell-based ELISA on CHO-S cells overexpressing human TIM-3
Protocol: as §1, §2

[4] = molecular target: T2, Extracellular domain of TIM-3 with Flag …; assay: Biacore SPR; antibody as stationary phase, 'TIM-3-His' as mobile phase

Binder | EC50 [1] | Kd [2] | EC50 [3] | Kd [4]
Ch1799 (antibody, human IgG4 S228P, kappa, V domains shown) VH: EVKLVESEGGLVQPGSSMKLSCTASGFTFSDYYMAWVRQVPEKGLEWVANINYDGSSTYYLDSLKSRFIISRDNAKNILYLQMNSLKSDDTATYYCARDVGYYGGNYGFAYWGQGTLVTVSA VL: DIQMTQSPASLSASVGETVTITCRASDNIYSYLAWYQQKQGKSPQLLVYNAKTLAEGVPSRFSGSGSGTQFSLKINSLQPEDFGSYYCQQHYGSPLTFGAGTKLELKR | 0.08 nM | 1.76 nM |  | 
h1799-005 (antibody, human IgG4 S228P, kappa, Humanized IgG4 (S228P)/kappa) heavy: not shown light: DIQMTQSPSSLSASVGDRVTITCRASDNIYSYLAWYQQKPGKAPKLLIYNAKTLAEGVPSRFSGSGSGTDFTLTISSLQPEDFATYYCQQHYGSPLTFGQGTKLEIKRTVAAPSVFIFPPSDEQLKSGTASVVCLLNNFYPREAKVQWKVDNALQSGNSQESVTEQDSKDSTYSLSSTLTLSKADYEKHKVYACEVTHQGLSSPVTKSFNRGEC | 0.063 nM | 1.78 nM |  | 
h1701-009 (antibody, human IgG4 S228P, kappa, V domains shown, Humanized IgG4 (S228P)/kappa) VH: QVQLVQSGAEVKKPGASVKVSCKASGYTFTDYYMNWVRQAPGQGLEWMGDIIPNNGGSKYNQKFKDRVTMTTDTSTSTAYMELRSLRSDDTAVYYCATWGYGSSYRWFDYWGQGTLVTVSS VL: DIQMTQSPSSLSASVGDRVTITCLASQPIGIWLAWYQQKPGKAPKLLIYAATSLADGVPSRFSGSGSGTDFTFTISSLQPEDIATYYCQQLYSSPWTFGGGTKVEIKR | 0.187 nM | 1.34 nM | 0.503 nM | 0.599 nM
h1701-009NAG (antibody, human IgG4 S228P, kappa, V domains shown, HCDR2 point-mutation variant of h1701-009 (NNG to NAG); IgG4 (S228P)/kappa) VH: QVQLVQSGAEVKKPGASVKVSCKASGYTFTDYYMNWVRQAPGQGLEWMGDIIPNAGGSKYNQKFKDRVTMTTDTSTSTAYMELRSLRSDDTAVYYCATWGYGSSYRWFDYWGQGTLVTVSS VL: DIQMTQSPSSLSASVGDRVTITCLASQPIGIWLAWYQQKPGKAPKLLIYAATSLADGVPSRFSGSGSGTDFTFTISSLQPEDIATYYCQQLYSSPWTFGGGTKVEIKR |  |  | 0.512 nM | 0.579 nM
h1701-009NKG (antibody, human IgG4 S228P, kappa, V domains shown, HCDR2 point-mutation variant of h1701-009 (NNG to NKG); IgG4 (S228P)/kappa) VH: QVQLVQSGAEVKKPGASVKVSCKASGYTFTDYYMNWVRQAPGQGLEWMGDIIPNKGGSKYNQKFKDRVTMTTDTSTSTAYMELRSLRSDDTAVYYCATWGYGSSYRWFDYWGQGTLVTVSS VL: DIQMTQSPSSLSASVGDRVTITCLASQPIGIWLAWYQQKPGKAPKLLIYAATSLADGVPSRFSGSGSGTDFTFTISSLQPEDIATYYCQQLYSSPWTFGGGTKVEIKR |  |  | 0.438 nM | 0.472 nM
h1701-009NEA (antibody, human IgG4 S228P, kappa, V domains shown, HCDR2 point-mutation variant of h1701-009 (NNG to NEA); IgG4 (S228P)/kappa) VH: QVQLVQSGAEVKKPGASVKVSCKASGYTFTDYYMNWVRQAPGQGLEWMGDIIPNEAGSKYNQKFKDRVTMTTDTSTSTAYMELRSLRSDDTAVYYCATWGYGSSYRWFDYWGQGTLVTVSS VL: DIQMTQSPSSLSASVGDRVTITCLASQPIGIWLAWYQQKPGKAPKLLIYAATSLADGVPSRFSGSGSGTDFTFTISSLQPEDIATYYCQQLYSSPWTFGGGTKVEIKR |  |  | 0.667 nM | 0.653 nM
h1701-009NLG (antibody, human IgG4 S228P, kappa, V domains shown, HCDR2 point-mutation variant of h1701-009 (NNG to NLG); IgG4 (S228P)/kappa) VH: QVQLVQSGAEVKKPGASVKVSCKASGYTFTDYYMNWVRQAPGQGLEWMGDIIPNLGGSKYNQKFKDRVTMTTDTSTSTAYMELRSLRSDDTAVYYCATWGYGSSYRWFDYWGQGTLVTVSS VL: DIQMTQSPSSLSASVGDRVTITCLASQPIGIWLAWYQQKPGKAPKLLIYAATSLADGVPSRFSGSGSGTDFTFTISSLQPEDIATYYCQQLYSSPWTFGGGTKVEIKR |  |  | 0.637 nM | 0.64 nM
h1701-009NMA (antibody, human IgG4 S228P, kappa, V domains shown, HCDR2 point-mutation variant of h1701-009 (NNG to NMA); IgG4 (S228P)/kappa) VH: QVQLVQSGAEVKKPGASVKVSCKASGYTFTDYYMNWVRQAPGQGLEWMGDIIPNMAGSKYNQKFKDRVTMTTDTSTSTAYMELRSLRSDDTAVYYCATWGYGSSYRWFDYWGQGTLVTVSS VL: DIQMTQSPSSLSASVGDRVTITCLASQPIGIWLAWYQQKPGKAPKLLIYAATSLADGVPSRFSGSGSGTDFTFTISSLQPEDIATYYCQQLYSSPWTFGGGTKVEIKR |  |  | 0.629 nM | 0.653 nM
h1701-009NEG (antibody, human IgG4 S228P, kappa, V domains shown, HCDR2 point-mutation variant of h1701-009 (NNG to NEG); IgG4 (S228P)/kappa) VH: QVQLVQSGAEVKKPGASVKVSCKASGYTFTDYYMNWVRQAPGQGLEWMGDIIPNEGGSKYNQKFKDRVTMTTDTSTSTAYMELRSLRSDDTAVYYCATWGYGSSYRWFDYWGQGTLVTVSS VL: DIQMTQSPSSLSASVGDRVTITCLASQPIGIWLAWYQQKPGKAPKLLIYAATSLADGVPSRFSGSGSGTDFTFTISSLQPEDIATYYCQQLYSSPWTFGGGTKVEIKR |  |  | 0.673 nM | 0.64 nM
h1701-009NHA (antibody, human IgG4 S228P, kappa, V domains shown, HCDR2 point-mutation variant of h1701-009 (NNG to NHA); IgG4 (S228P)/kappa) VH: QVQLVQSGAEVKKPGASVKVSCKASGYTFTDYYMNWVRQAPGQGLEWMGDIIPNHAGSKYNQKFKDRVTMTTDTSTSTAYMELRSLRSDDTAVYYCATWGYGSSYRWFDYWGQGTLVTVSS VL: DIQMTQSPSSLSASVGDRVTITCLASQPIGIWLAWYQQKPGKAPKLLIYAATSLADGVPSRFSGSGSGTDFTFTISSLQPEDIATYYCQQLYSSPWTFGGGTKVEIKR |  |  | 0.53 nM | 0.597 nM
h1701-009NHG (antibody, human IgG4 S228P, kappa, V domains shown, HCDR2 point-mutation variant of h1701-009 (NNG to NHG); IgG4 (S228P)/kappa) VH: QVQLVQSGAEVKKPGASVKVSCKASGYTFTDYYMNWVRQAPGQGLEWMGDIIPNHGGSKYNQKFKDRVTMTTDTSTSTAYMELRSLRSDDTAVYYCATWGYGSSYRWFDYWGQGTLVTVSS VL: DIQMTQSPSSLSASVGDRVTITCLASQPIGIWLAWYQQKPGKAPKLLIYAATSLADGVPSRFSGSGSGTDFTFTISSLQPEDIATYYCQQLYSSPWTFGGGTKVEIKR |  |  | 0.317 nM | 0.64 nM
Ch1701 (antibody, human IgG4 S228P, kappa, V domains shown) VH: EVQLQQSGPELVKPGASVKISCKASGYTFTDYYMNWVKQSHGKSLEWIADIIPNNGGSKYNQKFKDKATLTVDKSSSTAYMELRSLTSEDSAVYYCATWGYGSSYRWFDYWGQGTLVSVSA VL: DIQMTQSPASQSASLGESVTITCLASQPIGIWLAWYQQKPGKSPQLLIYAATSLADGVPSRFSGSGSGTKFSFKISSLQAEDFVSYYCQQLYSSPWTFGGGTKLEIKR | 0.166 nM | 1.39 nM |  | 

The next lines start with the values.

EC50 [1] | Kd [2] | EC50 [3] | Kd [4] | Binder
0.095 nM | 1.89 nM |  |  | h1799-006 (antibody, human IgG4 S228P, kappa, Humanized IgG4 (S228P)/kappa) heavy: not shown light: DIQMTQSPSSLSASVGDRVTITCRASDNIYSYLAWYQQKPGKAPKLLVYNAKTLAEGVPSRFSGSGSGTDFTLTISSLQPEDFATYYCQQHYGSPLTFGQGTKLEIKRTVAAPSVFIFPPSDEQLKSGTASVVCLLNNFYPREAKVQWKVDNALQSGNSQESVTEQDSKDSTYSLSSTLTLSKADYEKHKVYACEVTHQGLSSPVTKSFNRGEC
0.077 nM | 2.48 nM |  |  | h1799-010 (antibody, human IgG4 S228P, kappa, Humanized IgG4 (S228P)/kappa) heavy: not shown light: DIQMTQSPSSLSASVGDRVTITCRASDNIYSYLAWYQQKPGKAPKLLIYNAKTLAEGVPSRFSGSGSGTDFTLTISSLQPEDFATYYCQQHYGSPLTFGQGTKLEIKRTVAAPSVFIFPPSDEQLKSGTASVVCLLNNFYPREAKVQWKVDNALQSGNSQESVTEQDSKDSTYSLSSTLTLSKADYEKHKVYACEVTHQGLSSPVTKSFNRGEC
 |  | 0.603 nM | 0.675 nM | h1701-009NMG (antibody, human IgG4 S228P, kappa, V domains shown, HCDR2 point-mutation variant of h1701-009 (NNG to NMG); IgG4 (S228P)/kappa) VH: QVQLVQSGAEVKKPGASVKVSCKASGYTFTDYYMNWVRQAPGQGLEWMGDIIPNMGGSKYNQKFKDRVTMTTDTSTSTAYMELRSLRSDDTAVYYCATWGYGSSYRWFDYWGQGTLVTVSS VL: DIQMTQSPSSLSASVGDRVTITCLASQPIGIWLAWYQQKPGKAPKLLIYAATSLADGVPSRFSGSGSGTDFTFTISSLQPEDIATYYCQQLYSSPWTFGGGTKVEIKR
0.069 nM | 2.25 nM |  |  | h1701-010 (antibody, human IgG4 S228P, kappa, V domains shown, Humanized IgG4 (S228P)/kappa) VH: QVQLVQSGAEVKKPGASVKVSCKASGYTFTDYYMNWVRQAPGQGLEWMGDIIPNNGGSKYNQKFKDRVTMTTDTSTSTAYMELRSLRSDDTAVYYCATWGYGSSYRWFDYWGQGTLVTVSS VL: DIQMTQSPSSLSASVGDRVTITCLASQPIGIWLAWYQQKPGKSPKLLIYAATSLADGVPSRFSGSGSGTDFTFTISSLQPEDIATYYCQQLYSSPWTFGGGTKVEIKR
0.058 nM | 1.6 nM |  |  | h1701-016 (antibody, human IgG4 S228P, kappa, V domains shown, Humanized IgG4 (S228P)/kappa) VH: QVQLVQSGAEVKKPGASVKVSCKASGYTFTDYYMNWVRQAPGQGLEWIADIIPNNGGSKYNQKFKDRATLTTDTSTSTAYMELRSLRSDDTAVYYCATWGYGSSYRWFDYWGQGTLVTVSS VL: DIQMTQSPSSLSASVGDRVTITCLASQPIGIWLAWYQQKPGKSPKLLIYAATSLADGVPSRFSGSGSGTDFTFTISSLQPEDIATYYCQQLYSSPWTFGGGTKVEIKR
 |  | 0.717 nM | 0.581 nM | h1701-009NVG (antibody, human IgG4 S228P, kappa, V domains shown, HCDR2 point-mutation variant of h1701-009 (NNG to NVG); IgG4 (S228P)/kappa) VH: QVQLVQSGAEVKKPGASVKVSCKASGYTFTDYYMNWVRQAPGQGLEWMGDIIPNVGGSKYNQKFKDRVTMTTDTSTSTAYMELRSLRSDDTAVYYCATWGYGSSYRWFDYWGQGTLVTVSS VL: DIQMTQSPSSLSASVGDRVTITCLASQPIGIWLAWYQQKPGKAPKLLIYAATSLADGVPSRFSGSGSGTDFTFTISSLQPEDIATYYCQQLYSSPWTFGGGTKVEIKR
 |  | 0.515 nM | 0.569 nM | h1701-009NNA (antibody, human IgG4 S228P, kappa, V domains shown, HCDR2 point-mutation variant of h1701-009 (NNG to NNA); IgG4 (S228P)/kappa) VH: QVQLVQSGAEVKKPGASVKVSCKASGYTFTDYYMNWVRQAPGQGLEWMGDIIPNNAGSKYNQKFKDRVTMTTDTSTSTAYMELRSLRSDDTAVYYCATWGYGSSYRWFDYWGQGTLVTVSS VL: DIQMTQSPSSLSASVGDRVTITCLASQPIGIWLAWYQQKPGKAPKLLIYAATSLADGVPSRFSGSGSGTDFTFTISSLQPEDIATYYCQQLYSSPWTFGGGTKVEIKR
